Assay results: PMC12272218

Target: T1, Uracil-DNA Glycosylase (UDG) (UniProt P12295)
T1 sequence: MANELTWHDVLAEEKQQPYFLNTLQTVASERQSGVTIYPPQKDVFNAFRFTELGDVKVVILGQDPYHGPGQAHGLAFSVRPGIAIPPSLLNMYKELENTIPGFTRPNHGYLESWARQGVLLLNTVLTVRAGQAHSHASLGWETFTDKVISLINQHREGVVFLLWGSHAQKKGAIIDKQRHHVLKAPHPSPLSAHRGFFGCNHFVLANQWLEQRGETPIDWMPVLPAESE

Question: For “uracil glycosylase inhibitor (UGI) (from UniProt P14739 1-84) (natural protein)”, which half-maximal inhibitory concentration of UGI on UDG activity, read by fluorescence of the dU-containing circular crRNA-assisted CRISPR-Cas12a system is on record?
Answer: Its half-maximal inhibitory concentration of UGI on UDG activity, read by fluorescence of the dU-containing circular crRNA-assisted CRISPR-Cas12a system is 0.087 U/mL.
